From US20140199692A1

Molecular target: eukaryotic translation initiation factor eIF4E (endogenous, in lysates of human cell lines) (UniProt P06730)
Assay: immunoprecipitation of eIF4E from nuclear lysates

Chain of eukaryotic translation initiation factor eIF4E (endogenous, in lysates of human cell lines) (P06730 2-217 limits assumed): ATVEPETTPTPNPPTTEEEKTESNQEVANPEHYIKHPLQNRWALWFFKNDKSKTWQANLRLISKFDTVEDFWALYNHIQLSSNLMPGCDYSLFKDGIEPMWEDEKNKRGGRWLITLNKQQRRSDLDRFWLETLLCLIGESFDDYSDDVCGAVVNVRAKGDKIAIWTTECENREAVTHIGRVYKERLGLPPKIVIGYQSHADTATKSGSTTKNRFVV

- efficiency of IP: < 80%
Substance: mouse monoclonal anti-eIF4E Ab (BD Transduction Laboratories) (antibody)
